In paper PMC5921579:

Substrate: O=P(O)(O)O[C@@H]1[C@H](O)[C@H](O)[C@@H](OP(=O)(O)O)[C@H](OP(=O)(O)O)[C@H]1O
Experiment: ADP luciferase assay, nonlinear regression
Type: biochemical, Trypanosoma brucei
Conditions: 200 µM ATP, 2 mM MgCl2, 20 mM HEPES, 150 mM NaCl, pH 7.5, 37°C

B1: T. brucei IPMK (rIPMK, rTbIPMK) (Trypanosoma brucei brucei TREU927) (protein)
chain: MLNICQNLSSVAKPDLIVVSGHKCNIQRGPQTSIGTPTITKRVTAWEALIYLEMLLAEDEAFAILATFVPPLVALLPPENFASDNWVYVHDPASRPLLKSIFAQLKQMSADTHGYNEVMDTTRWEIILVDVTATFHKPCVLDIKLGYVRHSPHTLPDKVERIHKRQLRRSQPIRFCGAHHQFCRQNNDIGECFELEEFTKDMGYALETEESHRRALRSFFTTASLMTTSNTNETTIIDDRHAMARSRCCRQRVQKLVDFLKGHLGQMLLERIAFVSASLLIVYDATGCCGRNVTVSEGINSMNDMVNVYLIDFSRSGDRRLHFPEEVVGFVQGLEKIIFLLS
- Km: 61.41 (±15.37) µM
- Vmax: 617 µmol/min/mg
- kcat/Km: 167000 M⁻¹ s⁻¹
